Reference: patent publication US20020002269A1, “ARTEMIN, A NEUROTROPHIC FACTOR” (priority 1998, published 2002)

Assays:
[1] = test system: trigeminal ganglion (TG) neurons; assay: Survival of cultured trigeminal ganglion neurons; type: cell-based, rat; conditions: 50 ng/ml, FIG. 7C; for survival of TG sensory neurons: 3 days in vitro
Experimental: Each GDNF ligand family member consisted of the human mature amino acid sequence and was produced by standard recombinant DNA methods. Recombinant GDNF, neurturin and persephin were obtained from Genentech while recombinant artemin was produced as described in Example 3.
The cultures were performed using standard methods described elsewhere (Kotzbauer et al., Neuron 12:763-773, 1994; Kotzbauer et al., Nature 384:467-470, 1996; Milbrandt et al., Neuron 20:245-253, 1998). In brief, for SCG neurons, after dissection and dissociation, neurons were plated on collagen-coated 24-well tissue culture plates and maintained in NGF-containing medium (AM50) for 5 days, after which they were either kept in AM50 or switched to medium containing neutralizing anti-NGF antibodies plus GDNF, neurturin, persephin, artemin, (50 ng/ml where not noted otherwise), or no growth factors. Cultures were maintained for 3 days, after which they were fixed in 4% paraformaldehyde and stained with toluidine blue, and surviving neurons were counted. For nodose ganglion and dorsal root ganglion neuron cultures, dissociated neurons were plated directly into NGF (for dorsal root ganglia), or BDNF (for nodose ganglia, 100 ng/ml) or one of the GDNF ligands in serum-containing medium (AM50 with anti-NGF antibodies), and cells surviving after 3 days in culture were counted as above. Trigeminal ganglia were dissected, dissociated, and plated directly into medium containing NGF or the indicated GDNF ligands, and the number of surviving cells was assessed after 3 days in vitro. For all culture systems, 2-3 independent experiments were performed.

[2] = test system: CHP126 neuroblastoma cell line; assay: Responsiveness of a neuroblastoma cell line that does not express RET (CHP126); type: cell-based; conditions: data not shown
[3] = test system: CHP134 neuroblastoma cell line; assay: Responsiveness of a neuroblastoma cell line that does not express RET (CHP134); type: cell-based; conditions: data not shown
[4] = molecular target: T1, RET (Rattus norvegicus, UniProt G3V9H8); assay: Western blot of RET phosphorylation and MAP kinase activation in SCG neurons; type: cell-based; conditions: 50 ng/ml for 20 minutes, FIG. 9A
T1 construct: endogenous in cells
T1 sequence (G3V9H8 24-1115): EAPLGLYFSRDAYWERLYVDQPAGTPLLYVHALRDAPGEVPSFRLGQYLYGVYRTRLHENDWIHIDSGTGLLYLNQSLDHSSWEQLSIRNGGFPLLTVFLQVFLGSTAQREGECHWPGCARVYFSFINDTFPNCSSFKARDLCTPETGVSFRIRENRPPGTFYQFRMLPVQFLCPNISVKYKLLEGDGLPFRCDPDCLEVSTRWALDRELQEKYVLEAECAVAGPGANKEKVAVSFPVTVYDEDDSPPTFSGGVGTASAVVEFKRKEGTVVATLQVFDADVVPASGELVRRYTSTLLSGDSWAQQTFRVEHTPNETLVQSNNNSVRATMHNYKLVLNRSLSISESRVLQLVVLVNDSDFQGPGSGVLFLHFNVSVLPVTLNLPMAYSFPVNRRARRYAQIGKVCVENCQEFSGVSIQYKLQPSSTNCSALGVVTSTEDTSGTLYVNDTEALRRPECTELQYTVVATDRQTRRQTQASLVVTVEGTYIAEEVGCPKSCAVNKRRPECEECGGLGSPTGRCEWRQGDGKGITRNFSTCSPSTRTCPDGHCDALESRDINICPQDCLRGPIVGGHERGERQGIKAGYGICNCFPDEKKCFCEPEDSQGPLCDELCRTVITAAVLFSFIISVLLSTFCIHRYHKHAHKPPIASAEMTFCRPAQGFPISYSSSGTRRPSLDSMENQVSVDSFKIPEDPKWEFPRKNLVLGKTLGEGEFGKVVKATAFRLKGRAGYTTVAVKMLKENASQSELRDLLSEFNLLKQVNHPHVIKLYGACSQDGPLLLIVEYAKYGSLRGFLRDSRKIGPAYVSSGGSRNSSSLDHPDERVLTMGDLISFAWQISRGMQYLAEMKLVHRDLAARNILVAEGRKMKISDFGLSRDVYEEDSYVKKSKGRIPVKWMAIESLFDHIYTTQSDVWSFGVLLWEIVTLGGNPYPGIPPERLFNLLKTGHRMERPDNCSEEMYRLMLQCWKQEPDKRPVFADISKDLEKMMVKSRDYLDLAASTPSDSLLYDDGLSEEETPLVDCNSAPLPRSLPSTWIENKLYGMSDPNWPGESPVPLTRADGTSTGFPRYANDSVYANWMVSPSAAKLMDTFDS
Experimental: In brief, SCG neurons were dissected from postnatal day 1 (P1) rats and maintained in NGF-containing medium for 5 days, after which they were deprived of NGF by switching to NGF-free medium in the presence of anti-NGF antibodies. After 2 hours without NGF, neurons were switched to medium containing NGF, GDNF or artemin at 50 ng/ml for 20 minutes. Cells were washed in cold PBS, and collected in immunoprecipitation buffer (1 mM EDTA/1 mM EGTA/0.2 mM NaVO3/1 mM Pefabloc/1 uM pepstatin A/10 ug/ml leupeptin/2 ug/ml aprotinin/1% Triton X-100/0.5% Nonidet P-40/150 mM NaCl in 10 mM Tris, pH 7.4). The lysates were incubated with 30 μl agarose-conjugated anti-phosphotyrosine antibodies (Calbiochem) at 4° C. for 1 hr. Beads were then washed three times with immunoprecipitation buffer, resuspended in SDS sample buffer, and boiled for 5 min. Samples were separated using SDS-PAGE, and transferred to nitrocellulose membranes. Membranes were blocked for 1 hr at 25° C. in TBS containing 5% dry milk, incubated overnight 4° C. with a 1:300 dilution of anti-Ret antibody (C-19; Santa Cruz), then washed (3× in TBS containing 0.1% Tween-20) and incubated in a 1:10,000 dilution of anti-rabbit antibodies conjugated to HRP (Jackson Immunoresearch). Membranes were washed 3×, incubated with SuperSignal ULTRA (Pierce) for 5 minutes, then exposed to film. For MAP kinase (MAPK) assays, a portion of the total lysate wars removed before immunoprecipitation, separated by SDS-PAGE, and immunoblotted using an anti-phospho-MAP-kinase antibody (New England Biolabs).

[5] = molecular target: T2, GFRα1/RET (UniProt P07949+Q62997); assay: Ga14-Elk/Ga14-Luc reporter in RET-3T3 fibroblasts transfected with GFRα1; type: cell-based, rat GFRα1, human RET; conditions: FIG. 10A; for activation of RET signaling in cells expressing GFRα1/RET (luciferase reporter): RET-3T3, 50 ng/ml for 6-8 hours
T2 construct: expressed in transfected cells; host or cells: MG87 fibroblasts stably expressing human RET (RET-3T3), transiently transfected with the CMV-GFRα1 plasmid
T2 sequence (Q62997 25-430 limits assumed): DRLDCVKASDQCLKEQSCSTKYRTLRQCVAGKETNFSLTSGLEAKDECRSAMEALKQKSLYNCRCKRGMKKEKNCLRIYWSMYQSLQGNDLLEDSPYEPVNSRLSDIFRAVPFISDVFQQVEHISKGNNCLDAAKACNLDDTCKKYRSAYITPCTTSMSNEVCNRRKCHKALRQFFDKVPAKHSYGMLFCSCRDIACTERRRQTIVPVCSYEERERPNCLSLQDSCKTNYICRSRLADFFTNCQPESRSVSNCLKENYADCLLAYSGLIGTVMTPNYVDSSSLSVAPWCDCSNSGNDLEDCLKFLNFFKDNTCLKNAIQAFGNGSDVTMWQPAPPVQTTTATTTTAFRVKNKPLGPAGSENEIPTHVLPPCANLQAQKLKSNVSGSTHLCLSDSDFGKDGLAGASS
T2 sequence (P07949 29-1114): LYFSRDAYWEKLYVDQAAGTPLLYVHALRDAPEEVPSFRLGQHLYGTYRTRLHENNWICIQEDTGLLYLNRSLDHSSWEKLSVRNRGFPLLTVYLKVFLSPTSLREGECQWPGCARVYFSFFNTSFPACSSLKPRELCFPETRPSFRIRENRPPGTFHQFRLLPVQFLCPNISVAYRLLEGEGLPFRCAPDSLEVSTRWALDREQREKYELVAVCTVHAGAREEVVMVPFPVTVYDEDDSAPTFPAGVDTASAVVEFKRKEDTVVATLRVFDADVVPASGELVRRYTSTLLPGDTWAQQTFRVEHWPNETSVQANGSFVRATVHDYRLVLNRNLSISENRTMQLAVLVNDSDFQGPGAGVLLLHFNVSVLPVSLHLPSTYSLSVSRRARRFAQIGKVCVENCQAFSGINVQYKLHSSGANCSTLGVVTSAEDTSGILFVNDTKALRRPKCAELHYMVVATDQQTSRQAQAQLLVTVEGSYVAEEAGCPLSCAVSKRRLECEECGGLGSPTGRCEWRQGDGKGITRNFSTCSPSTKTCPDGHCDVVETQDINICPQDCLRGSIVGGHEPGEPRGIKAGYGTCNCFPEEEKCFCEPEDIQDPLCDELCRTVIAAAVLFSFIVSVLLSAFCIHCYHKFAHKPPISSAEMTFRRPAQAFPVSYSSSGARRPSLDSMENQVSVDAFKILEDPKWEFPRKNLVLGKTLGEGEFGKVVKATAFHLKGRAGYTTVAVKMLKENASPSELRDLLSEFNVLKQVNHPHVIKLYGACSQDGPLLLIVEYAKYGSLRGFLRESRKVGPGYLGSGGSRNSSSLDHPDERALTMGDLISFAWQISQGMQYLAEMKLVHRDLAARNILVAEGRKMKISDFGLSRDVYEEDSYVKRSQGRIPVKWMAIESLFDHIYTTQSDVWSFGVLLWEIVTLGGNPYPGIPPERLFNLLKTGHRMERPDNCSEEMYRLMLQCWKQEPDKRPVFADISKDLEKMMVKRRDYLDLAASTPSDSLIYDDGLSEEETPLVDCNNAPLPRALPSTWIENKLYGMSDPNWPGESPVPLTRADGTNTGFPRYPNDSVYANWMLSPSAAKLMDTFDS
Description: Thus, to directly test which receptor combinations can form functional receptors for artemin, expression plasmids for the individual GFRA coreceptors together with the Ga14-Elk/Ga14-Luc reporter system were transiently transformed into fibroblasts that stably express RET. This system, which utilizes the ability of the Ga14-Elk fusion protein to respond to MAP kinase activity and activate transcription of the Ga14-luciferase reporter, has been used previously to monitor NGF/TrkA activation of the MAP kinase pathway in PC12 cells (Vossler et al., Cell 89:73-82, 1997; York et al., Nature 392:622-626, 1998), and GDNF/RET activation of MAP kinase in neuroblastoma cell lines (Worby et al., 1998, supra; Worby et al., J. Biol. Chem. 271:23619-23622, 1996).
Generation of the expression plasmids for rat GFRα1 and human GFRα2, as well as MG87 fibroblasts stably expressing human RET (RET-3T3), were described in detail previously (Baloh et al., 1997, supra; Creedon et al., 1997, supra). […]
NLF neuroblastoma cells, which naturally express GFRα2/RET (Tansey et al., submitted), or the RET-3T3 cells were plated at 85,000 cells/well in 12-well plates, and cotransfected with the reporter plasmids Ga14-Luc and CMV-Ga14-Elk (250 ng/well and 50 ng/well, respectively), CMV-lacZ (50 ng/well) for transfection normalization, one of the CMV-GFRA expression plasmids (500 ng/well), and pBluescript (650 ng/well) as carrier for a total of 1.5 μg DNA/well using the Superfect reagent (Qiagen) according to the manufacturer's instructions. […] Measurement of luciferase and β-galactosidase activity was measured using a luminometer and performed as described (Svaren et al., EMBO J 17:6010-6019, 1998). The average luciferase activity of duplicate samples was normalized to β-galactosidase activity of the cotransformed lacZ reporter, and fold activation was calculated by dividing the normalized activity in factor-treated cells by that in the no treatment control.

Row | Molecule | survival of TG sensory neurons [1] | number of TG neurons supported compared with GDNF or neurturin [1] | number of TG neurons supported compared with NGF [1] | response of CHP126 cells [2] | response of CHP134 cells [3] | downstream signaling (activation of the MAP kinase pathway) in SCG neurons [4] | tyrosine-phosphorylation of RET in SCG neurons [4] | activation of RET signaling in cells expressing GFRα1/RET (luciferase reporter) [5] | degree of RET activation in cells expressing GFRα1/RET compared with GDNF ([5]; RET-3T3, 50 ng/ml)
1 | artemin: recombinant mature human artemin (FIG. 3A, SEQ ID NO:3) with 8-histidine tag, produced in E. coli; GDNF family neurotrophic factor | supported the survival of a subset of sensory neurons | supported a larger number of neurons than GDNF or neurturin | a greater number (TG) | did not respond | did not respond | effective in eliciting downstream signaling | induced tyrosine-phosphorylation of RET | able to activate RET in cells expressing GFRα1/RET | to a lesser degree than GDNF
2 | GDNF: recombinant human mature GDNF obtained from Genentech (protein, UniProt P39905 78-211, looked up) Glial cell line-derived …: SPDKQMAVLPRRERNRQAAAANPENSRGKGRRGQRGKNRGCVLTAIHLNVTDLGLGYETKEELIFRYCSGSCDAAETTYDKILKNLSRNRRLVSDKVGQACCRPIAFDDDLSFLDDNLVYHILRKHSAKRCGCI | supported the survival of a subset of sensory neurons | – | – | did not respond | did not respond | – | induced tyrosine-phosphorylation of RET | activated RET signaling | –
